Results as given in US20230063116A1 (Regeneron, published 2023).
Where two headings read alike, the source gives them in different places.

Experiments:
human VEGF165 (REGN110) [1] = target: T1, human VEGF165 (REGN110) (human, UniProt P15692 207-395); assay: SPR, Biacore, 25 C; trap captured on anti-VEGFR1 mAb surface, hVEGF165 injected; 1:1 fit
T1 construct: also called hVEGF165; hVEGF165(M1-R191)
Description: (§1) Experimental Procedure. Equilibrium dissociation constants (KD values) for human VEGF₁₆₅ binding to various purified VEGF mini-trap constructs were determined using a real-time surface plasmon resonance biosensor using a Biacore 3000 instrument. All binding studies were performed in 10 mM HEPES, 150 mM NaCl, 3 mM EDTA, and 0.05% v/v Surfactant Tween-20, pH 7.4 (HBS-ET) running buffer at 25° C. The Biacore sensor surface was first derivatized by amine coupling with a monoclonal mouse anti-VEGFR1 antibody to capture VEGF mini-trap constructs. Binding studies were performed on the human VEGF reagent, human VEGF₁₆₅ (human VEGF₁₆₅; SEQ ID NO: 31). Different concentrations of VEGF₁₆₅ reagent, prepared in HBS-ET running buffer (2 nM — 62.5 pM; 2-fold serial dilution for human VEGF₁₆₅), were injected over an anti-VEGFR1-captured VEGF mini-trap construct surface for 1.8 minutes at a flow rate of 90 μL/minute, while the dissociation of VEGF mini-trap constructs bound VEGF₁₆₅ reagent was monitored for 60 minutes in HBS-ET running buffer. Kinetic association (kₐ) and dissociation (kd) rate constants were determined by fitting the real-time sensorgrams to a 1:1 binding model using Scrubber 2.0c curve fitting software. Binding dissociation equilibrium constants (KD) and dissociative half-lives (t½) were calculated from the kinetic rate constants as: […]

human VEGF165 (REGN110) [2] = target: T1, human VEGF165 (REGN110); assay: SPR, Biacore, 25 C; trap captured on anti-VEGFR1 mAb surface, hVEGF165 injected
Description: as §1

[3] = target: T2, VEGF110 (hVEGF110, aa 207-318) (human, UniProt P15692 207-318); assay: cell-based or functional assay
T2 sequence (looked up): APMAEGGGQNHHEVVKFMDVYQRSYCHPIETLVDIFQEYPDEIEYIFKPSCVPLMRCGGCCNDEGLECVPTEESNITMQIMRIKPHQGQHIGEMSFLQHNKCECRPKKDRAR

[4] = target: T3, VEGF121 (hVEGF121, aa 207-327) (human, UniProt P15692 207-327); assay: cell-based or functional assay
T3 chain: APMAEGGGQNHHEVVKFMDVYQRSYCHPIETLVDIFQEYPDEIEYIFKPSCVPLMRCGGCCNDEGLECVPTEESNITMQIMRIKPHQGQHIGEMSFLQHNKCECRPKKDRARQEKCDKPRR

human VEGF165 (REGN110) [5] = target: T1, human VEGF165 (REGN110); assay: SPR, Biacore 3000, 25 C; trap captured on anti-VEGFR1 mAb surface, hVEGF165 injected; 1:1 fit
[6] = target: T2, VEGF110 (hVEGF110, aa 207-318); assay: cell-based or functional assay; remark: listed apart in the source
human VEGF165 (REGN110) [7] = target: T1, human VEGF165 (REGN110); assay: cell-based or functional assay
Target sequence in this assay (P15692 other isoform, or with tags, fused parts or gaps): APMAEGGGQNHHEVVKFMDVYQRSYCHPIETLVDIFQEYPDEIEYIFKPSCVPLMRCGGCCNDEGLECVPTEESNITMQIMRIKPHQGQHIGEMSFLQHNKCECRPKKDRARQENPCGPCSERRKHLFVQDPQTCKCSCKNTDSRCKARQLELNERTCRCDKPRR

human VEGF165 (REGN110) [8] = target: T1, human VEGF165 (REGN110); assay: SPR, Biacore 3000, 25 C; trap captured on anti-VEGFR1 mAb surface, hVEGF165 injected
[9] = target: T2, VEGF110 (hVEGF110, aa 207-318); assay: cell-based or functional assay; remark: listed apart in the source
[10] = target: T3, VEGF121 (hVEGF121, aa 207-327); assay: cell-based or functional assay
[11] = target: T3, VEGF121 (hVEGF121, aa 207-327); assay: cell-based or functional assay

Binder	Kd (human VEGF165 (REGN110) [1]) [nM]	koff (human VEGF165 (REGN110) [1]) [s⁻¹]	kon (human VEGF165 (REGN110) [1]) [M⁻¹ s⁻¹]	t1/2 (dissociative half-life) (human VEGF165 (REGN110) [1]) [h]	2nM hVEGF165 Bound (human VEGF165 (REGN110) [2]) [RU]	IC50 (M), inhibition of VEGFR1 signaling (luciferase), 20 pM VEGF110 [3] [M]	IC50 (M), inhibition of VEGFR1 signaling (luciferase), 20 pM VEGF121 [4] [M]	Kd (human VEGF165 (REGN110) [5]) [nM]	koff (human VEGF165 (REGN110) [5]) [s⁻¹]	kon (human VEGF165 (REGN110) [5]) [M⁻¹ s⁻¹]	t½ (dissociative half-life) (human VEGF165 (REGN110) [5]) [h]	IC50 (M), inhibition of VEGFR1 signaling (luciferase), 20 pM VEGF110 [6] [M]	IC50 (M), inhibition of VEGFR1 signaling (luciferase), 20 pM VEGF165 (human VEGF165 (REGN110) [7]) [M]	100 nM hVEGF165 Bound (human VEGF165 (REGN110) [8]) [RU]	IC50 (M), inhibition of VEGFR1 signaling (luciferase), 20 pM VEGF110 [9] [M]	IC50 (M), inhibition of VEGFR1 signaling (luciferase), 20 pM VEGF121 [10] [M]	IC50 (M), inhibition of VEGFR1 signaling (luciferase), 20 pM VEGF121 [11] [M]
REGN7992 (hVEGF minitrap-G4Sx12-hVEGF minitrap) (receptor, Monomeric single chain, no tag; also called REGN7992 (G4Sx12 linker); single chain mini-trap with (G4S)12, no tag) SDTGRPFVEMYSEIPEIIHMTEGRELVIPCRVTSPNITVTLKKFPLDTLIPDGKRIIWDSRKGFIISNATYKEIGLLTCEATVNGHLYKTNYLTHRQTNTIIDVVLSPSHGIELSVGEKLVLNCTARTELNVGIDFNWEYPSSKHQHKKLVNRDLKTQSGSEMKKFLSTLTIDGVTRSDQGLYTCAASSGLMTKKNSTFVRVHEKGGGGSGGGGSGGGGSGGGGSGGGGSGGGGSGGGGSGGGGSGGGGSGGGGSGGGGSGGGGSSDTGRPFVEMYSEIPEIIHMTEGRELVIPCRVTSPNITVTLKKFPLDTLIPDGKRIIWDSRKGFIISNATYKEIGLLTCEATVNGHLYKTNYLTHRQTNTIIDVVLSPSHGIELSVGEKLVLNCTARTELNVGIDFNWEYPSSKHQHKKLVNRDLKTQSGSEMKKFLSTLTIDGVTRSDQGLYTCAASSGLMTKKNSTFVRVHEK	0.0153	9.7e-05	6.3e+06	1.98	22	3.42e-11	2.37e-11	–	–	–	–	–	–	–	–	–	–
REGN7483^F (homodimer mini-trap, FabRICATOR cleaved from aflibercept) (receptor, N-linked glycans at N36, N68, N123, N196 (Table C), Disulfide-linked homodimer made by IdeS cleavage of aflibercept; also called dimer mini-trap from FabRICATOR (IdeS) cleavage of REGN3) SDTGRPFVEMYSEIPEIIHMTEGRELVIPCRVTSPNITVTLKKFPLDTLIPDGKRIIWDSRKGFIISNATYKEIGLLTCEATVNGHLYKTNYLTHRQTNTIIDVVLSPSHGIELSVGEKLVLNCTARTELNVGIDFNWEYPSSKHQHKKLVNRDLKTQSGSEMKKFLSTLTIDGVTRSDQGLYTCAASSGLMTKKNSTFVRVHEKDKTHTCPPCPAPELLG	0.00132	≥ 1e-05	7.59e+06	≥ 19.2	–	–	–	≤ 0.00132	≤ 1e-05	7.58e+06	≥ 19.2	1.04e-11	1.23e-11	–	–	–	–
REGN7483^R (homodimer mini-trap, recombinant) (receptor, N-linked glycans at N36, N68, N123, N196 (Table C), also called Recombinant dimer mini-trap) SDTGRPFVEMYSEIPEIIHMTEGRELVIPCRVTSPNITVTLKKFPLDTLIPDGKRIIWDSRKGFIISNATYKEIGLLTCEATVNGHLYKTNYLTHRQTNTIIDVVLSPSHGIELSVGEKLVLNCTARTELNVGIDFNWEYPSSKHQHKKLVNRDLKTQSGSEMKKFLSTLTIDGVTRSDQGLYTCAASSGLMTKKNSTFVRVHEKDKTHTCPPCPAPELLG	0.00159	≥ 1e-05	6.3e+06	≥ 19.2	–	–	–	≤ 0.00158	≤ 1e-05	6.3e+06	≥ 19.2	1.3e-11	1.92e-11	–	–	–	–
REGN6824 (hVEGF minitrap-G4Sx3-hVEGF minitrap-mmH) (receptor, Monomeric single chain; also called REGN6824 (G4Sx3 linker); single chain mini-trap with (G4S)3 linker and C-terminal mmH tag) SDTGRPFVEMYSEIPEIIHMTEGRELVIPCRVTSPNITVTLKKFPLDTLIPDGKRIIWDSRKGFIISNATYKEIGLLTCEATVNGHLYKTNYLTHRQTNTIIDVVLSPSHGIELSVGEKLVLNCTARTELNVGIDFNWEYPSSKHQHKKLVNRDLKTQSGSEMKKFLSTLTIDGVTRSDQGLYTCAASSGLMTKKNSTFVRVHEKGGGGSGGGGSGGGGSSDTGRPFVEMYSEIPEIIHMTEGRELVIPCRVTSPNITVTLKKFPLDTLIPDGKRIIWDSRKGFIISNATYKEIGLLTCEATVNGHLYKTNYLTHRQTNTIIDVVLSPSHGIELSVGEKLVLNCTARTELNVGIDFNWEYPSSKHQHKKLVNRDLKTQSGSEMKKFLSTLTIDGVTRSDQGLYTCAASSGLMTKKNSTFVRVHEKEQKLISEEDLGGEQKLISEEDLHHHHHH	0.0861	0.000554	6.44e+06	0.348	33	–	–	0.0861	0.000554	6.44e+06	0.348	–	–	33	2.22e-10	2.44e-10	–
REGN7851 (VEGF mini-trap-hFc …) (receptor, Recombinant homodimer; also called REGN7851 (CPPCPPCPPC)) SDTGRPFVEMYSEIPEIIHMTEGRELVIPCRVTSPNITVTLKKFPLDTLIPDGKRIIWDSRKGFIISNATYKEIGLLTCEATVNGHLYKTNYLTHRQTNTIIDVVLSPSHGIELSVGEKLVLNCTARTELNVGIDFNWEYPSSKHQHKKLVNRDLKTQSGSEMKKFLSTLTIDGVTRSDQGLYTCAASSGLMTKKNSTFVRVHEKDKTHTCPPCPPCPPC	0.00181	≥ 1e-05	5.51e+06	≥ 19.2	51	–	–	–	–	–	–	1.45e-11	2.68e-11	–	–	–	1.83e-11
REGN7850 (VEGF mini-trap-hFc …) (receptor, Recombinant homodimer; also called REGN7850 (CPPCPPC)) SDTGRPFVEMYSEIPEIIHMTEGRELVIPCRVTSPNITVTLKKFPLDTLIPDGKRIIWDSRKGFIISNATYKEIGLLTCEATVNGHLYKTNYLTHRQTNTIIDVVLSPSHGIELSVGEKLVLNCTARTELNVGIDFNWEYPSSKHQHKKLVNRDLKTQSGSEMKKFLSTLTIDGVTRSDQGLYTCAASSGLMTKKNSTFVRVHEKDKTHTCPPCPPC	0.00155	≥ 1e-05	6.46e+06	≥ 19.2	56	–	–	–	–	–	–	1.22e-11	2.99e-11	–	–	–	1.66e-11
REGN7080 (VEGF minitrap-G4Sx6-VEGF minitrap mmH) (receptor, Monomeric single chain; also called REGN7080 (G4Sx6 linker); single chain mini-trap with (G4S)6 linker and C-terminal mmH tag) SDTGRPFVEMYSEIPEIIHMTEGRELVIPCRVTSPNITVTLKKFPLDTLIPDGKRIIWDSRKGFIISNATYKEIGLLTCEATVNGHLYKTNYLTHRQTNTIIDVVLSPSHGIELSVGEKLVLNCTARTELNVGIDFNWEYPSSKHQHKKLVNRDLKTQSGSEMKKFLSTLTIDGVTRSDQGLYTCAASSGLMTKKNSTFVRVHEKGGGGSGGGGSGGGGSGGGGSGGGGSGGGGSSDTGRPFVEMYSEIPEIIHMTEGRELVIPCRVTSPNITVTLKKFPLDTLIPDGKRIIWDSRKGFIISNATYKEIGLLTCEATVNGHLYKTNYLTHRQTNTIIDVVLSPSHGIELSVGEKLVLNCTARTELNVGIDFNWEYPSSKHQHKKLVNRDLKTQSGSEMKKFLSTLTIDGVTRSDQGLYTCAASSGLMTKKNSTFVRVHEKEQKLISEEDLGGEQKLISEEDLHHHHHH	0.0715	0.000387	5.41e+06	0.497	36	–	–	0.0715	0.000387	5.41e+06	0.497	–	–	36	1.61e-10	1.66e-10	–
REGN7991 (hVEGF minitrap-G4Sx9-hVEGF minitrap) (receptor, Monomeric single chain, no tag; also called REGN7991 (G4Sx9 linker); single chain mini-trap with (G4S)9, no tag) SDTGRPFVEMYSEIPEIIHMTEGRELVIPCRVTSPNITVTLKKFPLDTLIPDGKRIIWDSRKGFIISNATYKEIGLLTCEATVNGHLYKTNYLTHRQTNTIIDVVLSPSHGIELSVGEKLVLNCTARTELNVGIDFNWEYPSSKHQHKKLVNRDLKTQSGSEMKKFLSTLTIDGVTRSDQGLYTCAASSGLMTKKNSTFVRVHEKGGGGSGGGGSGGGGSGGGGSGGGGSGGGGSGGGGSGGGGSGGGGSSDTGRPFVEMYSEIPEIIHMTEGRELVIPCRVTSPNITVTLKKFPLDTLIPDGKRIIWDSRKGFIISNATYKEIGLLTCEATVNGHLYKTNYLTHRQTNTIIDVVLSPSHGIELSVGEKLVLNCTARTELNVGIDFNWEYPSSKHQHKKLVNRDLKTQSGSEMKKFLSTLTIDGVTRSDQGLYTCAASSGLMTKKNSTFVRVHEK	0.0138	9.79e-05	7.1e+06	1.97	40	7.88e-11	7.71e-11	–	–	–	–	–	–	–	–	–	–
